# Patent publication US20070196376A1 (AstraZeneca / MedImmune, published 2007)
# Experiments:
# [1] = target: T1, human insulin-like growth factor-II (IGF-II) (human, UniProt P01344 25-91); experiment: Biacore low-resolution analysis, IGF-II
# T1 construct: also called IGF2; IGF-2
# [2] = target: T1, human insulin-like growth factor-II …; experiment: Biacore high-resolution, mAb captured, IGF-II injected over a range of concentrations
# [3] = target: T2, human insulin-like growth factor-I (IGF-I) (human, UniProt P05019 49-118); experiment: Biacore high-resolution, mAb captured, IGF-I injected over a range of concentrations
# T2 construct: also called IGF1; IGF-1
# [4] = target: T2, human insulin-like growth factor-I …; experiment: Biacore low-resolution analysis, IGF-I
# [5] = target: T1, human insulin-like growth factor-II …; experiment: cell-based or functional assay
# [6] = target: T2, human insulin-like growth factor-I …; experiment: cell-based or functional assay
# [7] = target: T1, human insulin-like growth factor-II …; experiment: Biacore low-resolution screen, mAb captured, IGF-II injected
# [8] = target: T1, human insulin-like growth factor-II …; experiment: cell-based or functional assay; remark: listed apart in the source
# [9] = target: T2, human insulin-like growth factor-I …; experiment: cell-based or functional assay; remark: listed apart in the source
# [10] = target: T1, human insulin-like growth factor-II …; experiment: cell-based or functional assay; remark: listed apart in the source
# mouse IGF-I = mouse IGF-I (mouse, UniProt P05017 49-118); experiment: cell-based or functional assay
# mouse IGF-II = mouse IGF-II (mouse, UniProt P09535 25-91); experiment: cell-based or functional assay
# [11] = target: T2, human insulin-like growth factor-I …; experiment: Biacore low-resolution screen, mAb captured, IGF-I injected
# [12] = target: T1, human insulin-like growth factor-II …; experiment: cell-based or functional assay; remark: listed apart in the source
# [13] = target: T2, human insulin-like growth factor-I …; experiment: cell-based or functional assay; remark: listed apart in the source
# human insulin = target: T3, human insulin (human, UniProt P01308 25-54; P01308 90-110, limits assumed); experiment: Biacore, mAb on CM5 chip, insulin injected
# T3 construct: The mature hormone has an A and a B chain cut from the precursor; also called recombinant insulin; hu-Insulin
# IGF-I/IGFBP-3 complex = target: T4, IGF-I/IGFBP-3 complex (UniProt P05019 49-118); experiment: Biacore, mAb immobilised, preformed complex injected
# T4 construct: Preformed non-covalent complex; IGF-I 99.97% complexed by IGFBP-3; also called complexed IGF-I/IGFBP-3
# IGF-II/IGFBP-3 complex = target: T5, IGF-II/IGFBP-3 complex (UniProt P01344 25-91); experiment: as above
# T5 construct: Preformed non-covalent complex; IGF-II 99.97% complexed by IGFBP-3; also called complexed IGF-II/IGFBP-3
# [14] = target: T6, Recombinant human IGF-II (insulin-like growth factor-II) (human, UniProt P01344 25-91); experiment: limited antigen ELISA, supernatant 1:25
# T6 construct: Bought; also called IGF2; IGF-2
# [15] = target: T7, Recombinant human IGF-I (insulin-like growth factor-I) (human, UniProt P05019 49-118); experiment: limited antigen ELISA, supernatant 1:25
# T7 construct: Bought; also called IGF1; IGF-1
Binder,"% MAX Activation, mean (n = 2), IGF-II pTYR of hIGF-IR in NIH3T3 cells [5] [%]","EC50 (nM), mean (n = 2), IGF-II pTYR of hIGF-IR in NIH3T3 cells [5] [nM]","% MAX Activation, mean (n = 2), IGF-I pTYR of hIGF-IR in NIH3T3 cells [6] [%]","EC50 (nM), mean (n = 2), IGF-I pTYR of hIGF-IR in NIH3T3 cells [6] [nM]",Kd [7] [nM],koff [7] [s⁻¹],kon [7] [M⁻¹ s⁻¹],"EC50 (nM), n = 2, IGF-II pTYR, BxPC3 cells [8] [nM]","Max % Inhibition (133.3 nM), n = 2, IGF-II pTYR, BxPC3 cells [8] [%]","Max % Inhibition (333.3 nM), n = 1, IGF-II pTYR, BxPC3 cells [8] [%]","EC50 (nM), n = 1, IGF-I pTYR, BxPC3 cells [9] [nM]","EC50 (nM), n = 2, IGF-I pTYR, BxPC3 cells [9] [nM]","Max % Inhibition (333.3 nM), n = 1, IGF-I pTYR, BxPC3 cells [9] [%]","Max % Inhibition (333.3 nM), n = 2, IGF-I pTYR, BxPC3 cells [9] [%]","EC50 (nM), n = 1, IGF-II Proliferation, BxPC3 cells [10] [nM]","Max % Inhibition (133.3 nM), n = 2, IGF-II Proliferation, BxPC3 cells [10] [%]","Max % Inhibition (333.3 nM), n = 1, IGF-II Proliferation, BxPC3 cells [10] [%]",Kd [11] [nM],koff [11] [s⁻¹],kon [11] [M⁻¹ s⁻¹],other results
"mAb 7.251.3 (antibody, V domains shown, Fully human XenoMouse hybridoma mAb, lambda light chain (V1-13/JL2); also called ATCC PTA-7422) VH: QVQLQESGPGLVKPSETLSLTCTVSGGSISSYYWSWIRQPPGKGLEWIGYFFYSGYTNYNPSLKSRVTISVDTSKNQFSLKLSSVTAADTAVYYCACITGTTKGGMDVWGQGTTVTVSS VL: QSVLTQPPSVSGAPGQRVTISCTGSSSNIGAGYDVHWYQQLPGTAPKLLIYGNNNRPSGVPDRFSGSKSGTSASLAITGLQADDEADYYCQSFDSSLSGSVFGGGTKLTVLG",15.9,3,16.9,14.5,0.123,0.00043,3.5e+06,2.6,91.3,100,7.5,5.3,95.7,95.2,0.5,105,128,0.935,0.0043,4.6e+06,"Kd [1]: 0.123 nM; Kd [2]: 0.0474 nM; Kd [3]: 0.452 nM; Kd [4]: 0.935 nM; EC50 (nM), n = 2, IGF-II Proliferation, BxPC3 cells [10]: 4.4 nM; Mouse IGF-I EC50 (nM), n = 1, phosphorylation of hIGF-IR in NIH3T3 cells (mouse IGF-I): 6.7 nM; Mouse IGF-I EC50 (nM), n = 2, phosphorylation of hIGF-IR in NIH3T3 cells (mouse IGF-I): 10.6 nM; Mouse IGF-II EC50 (nM), n = 1, phosphorylation of hIGF-IR in NIH3T3 cells (mouse IGF-II): 5.4 nM; Mouse IGF-II EC50 (nM), n = 2, phosphorylation of hIGF-IR in NIH3T3 cells (mouse IGF-II): 8.7 nM; % Inhibition, mean (n = 2), IGF-II Proliferation Assay, NIH3T3/hIGF-IR cells [12]: 79.2%; EC50 (nM), mean (n = 2), IGF-II Proliferation Assay, NIH3T3/hIGF-IR cells [12]: 22 nM; % Inhibition, mean (n = 3), IGF-I Proliferation Assay, NIH3T3/hIGF-IR cells [13]: 72.4%; EC50 (nM), mean (n = 3), IGF-I Proliferation Assay, NIH3T3/hIGF-IR cells [13]: 38.9 nM"
"mAb 7.158.2 (antibody, V domains shown, Kappa light chain (L5/JK3); also called 7.158.1; 7_158_1) VH: QLQLQESGPGLVKPSETLSLTCTVSGGSIRSSSYYWGWIRQPPGKGLEWIGGIYYSGSTYYNPSLKSRVTMSVDTSKNQFSLKLSSVTAADTAVYYCARQRGHSSGWWYFDLWGRGTLVTVSS VL: DIQMTQSPSSVSASVGDSVTITCRASQGISSYLAWYQQKPGKAPKLLIYAASSLQSGVPSRFSGNGSGTDFTLTISSLQPEDFATYYCQQANNFPFTFGPGTKVDIKR",33.7,11.3,22.7,28.3,0.197,0.00067,3.4e+06,4.2,74,92.4,4.5,3.6,92.9,89.4,0.0013,148,86.3,0.5,0.0022,4.4e+06,"% Inhibition, mean (n = 2), IGF-II Proliferation Assay, NIH3T3/hIGF-IR cells [12]: 54.6%; EC50 (nM), mean (n = 2), IGF-II Proliferation Assay, NIH3T3/hIGF-IR cells [12]: 36 nM; % Inhibition, mean (n = 3), IGF-I Proliferation Assay, NIH3T3/hIGF-IR cells [13]: 57.4%; EC50 (nM), mean (n = 3), IGF-I Proliferation Assay, NIH3T3/hIGF-IR cells [13]: 42.8 nM"
"mAb 7.159.2 (ATCC Accession Number PTA-7424) (antibody, V domains shown, Fully human, lambda light chain (V1-19/JL2); also called 7.159.1; 7_159_1) VH: QVQLVQSGAEVKKPGASVKVSCKASGYTFTSYDINWVRQATGQGLEWMGWMNPNSGNTGYAQKFQGRVTMTRNTSISTAYMELSSLRSEDTAVYYCARDPYYYYYGMDVWGQGTTVTVSS VL: QSVLTQPPSVSAAPGQKVTISCSGSSSNIENNHVSWYQQLPGTAPKLLIYDNNKRPSGIPDRFSGSKSGTSATLGITGLQTGDEADYYCETWDTSLSAGRVFGGGTKLTVLG",–,–,–,–,–,–,–,–,–,–,–,–,–,–,–,–,–,–,–,–,"binding result (human insulin): no binding (tested: 502 nM); Kd (IGF-I/IGFBP-3 complex): > 1000 nM; Kd (IGF-II/IGFBP-3 complex): > 1000 nM; LA OD, IGF2 2 ng/ml [14]: 1.65 OD 450 nm; LA OD, IGF2 4 ng/ml [14]: 2.47 OD 450 nm; LA OD, IGF1 2 ng/ml [15]: 0.56 OD 450 nm; LA OD, IGF1 4 ng/ml [15]: 0.98 OD 450 nm"
